6 molecules from patent US20050214772, “Thio modified aptamer synthetic methods and compositions” (Board Of Regents, The University Of Texas System, published 2005) can be followed below.

For data set [1], the target named is NF-IL6 (C/EBPbeta) tryptic core domain bZIP (TCD) (UniProt P17676). The data set is described as follows: FP. The following applies: Kobs, direct titration, normal phosphate backbone.
The target of data set [2] is T1, c-Rel homodimer (UniProt Q04864 Q04864:2-619).
T1 sequence: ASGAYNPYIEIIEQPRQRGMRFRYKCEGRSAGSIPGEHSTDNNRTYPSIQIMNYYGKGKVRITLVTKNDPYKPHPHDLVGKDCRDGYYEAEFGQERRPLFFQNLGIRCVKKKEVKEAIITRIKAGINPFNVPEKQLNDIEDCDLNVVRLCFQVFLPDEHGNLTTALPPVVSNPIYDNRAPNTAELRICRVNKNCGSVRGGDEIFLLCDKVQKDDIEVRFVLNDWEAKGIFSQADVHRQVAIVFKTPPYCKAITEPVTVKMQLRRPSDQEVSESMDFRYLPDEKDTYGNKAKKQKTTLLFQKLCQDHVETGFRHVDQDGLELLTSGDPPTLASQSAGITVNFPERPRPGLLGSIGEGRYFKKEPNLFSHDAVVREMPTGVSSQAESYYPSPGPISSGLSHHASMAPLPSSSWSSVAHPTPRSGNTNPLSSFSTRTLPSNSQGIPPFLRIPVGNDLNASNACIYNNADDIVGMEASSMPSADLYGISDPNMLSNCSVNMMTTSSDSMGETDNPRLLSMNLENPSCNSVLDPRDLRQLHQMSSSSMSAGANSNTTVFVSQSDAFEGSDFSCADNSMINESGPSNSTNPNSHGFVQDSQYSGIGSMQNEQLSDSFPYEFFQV
The data set can be described thus: EMSA; single-copy site behaves similarly to CK-1. The settings on record: chain copies: 2 (stated). In general terms: A gel shift assay detects complexes by their altered migration in electrophoresis.

In data set [3] the target is T2, NF-kB p50 homodimer (UniProt P19838 P19838:1-433). The data set can be described thus: EMSA; full monothiolation loses specificity. The following applies: chain copies: 2 (stated).
T2 sequence (P19838 1-433, one chain of several): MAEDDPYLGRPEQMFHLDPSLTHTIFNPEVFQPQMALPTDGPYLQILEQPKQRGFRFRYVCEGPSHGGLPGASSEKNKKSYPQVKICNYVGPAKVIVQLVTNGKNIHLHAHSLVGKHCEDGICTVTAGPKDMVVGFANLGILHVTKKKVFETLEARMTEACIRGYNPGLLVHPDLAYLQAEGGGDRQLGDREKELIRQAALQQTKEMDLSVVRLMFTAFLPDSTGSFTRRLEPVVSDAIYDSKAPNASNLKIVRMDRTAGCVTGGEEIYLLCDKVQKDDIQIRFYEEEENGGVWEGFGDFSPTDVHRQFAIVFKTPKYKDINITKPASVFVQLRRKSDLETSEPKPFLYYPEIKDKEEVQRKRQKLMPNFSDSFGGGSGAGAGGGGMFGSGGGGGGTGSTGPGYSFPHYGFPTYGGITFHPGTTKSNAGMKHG
Data set [4] has as its target T2, NF-kB p50 homodimer. The data set can be described thus: EMSA; competition with 32P-IgkB; specificity lost on full thiolation. The settings on record: chain copies: 2 (stated). How it is done:
In standard competitive binding assays, ³²P-IgκB promoter element ODN duplex was incubated with recombinant p50 or p65 and competitor oligonucleotide (A) phosphodiester CK-1; (B) phosphorothioate CK-1. The reactions were then run on a nondenaturing polyacrylamide gel, and the amount of radioactivity bound to protein and shifted in the gel was quantitated by direct counting. […] It is the recognition that [S]-ODNs with large numbers of phosphorothioate linkages are “sticky” and tend to bind with poor specificity to proteins that led to one of the embodiments of the present invention. Using the method disclosed herein it was determined that if the number of phosphorothioate linkages is reduced to only 2-4, specificity can be restored, but binding is not enhanced.

The target of data set [5] is T1, c-Rel homodimer. The data set is described as follows: EMSA; binds and competes. The following applies: chain copies: 2 (stated).
The target of data set [6] is T2, NF-kB p50 homodimer. The data set can be described thus: EMSA; labeled probe in competition assays. The following applies: chain copies: 2 (stated); label: 32P.

Sequence of NF-IL6 (C/EBPbeta) tryptic core domain bZIP (TCD) (P17676 266-345): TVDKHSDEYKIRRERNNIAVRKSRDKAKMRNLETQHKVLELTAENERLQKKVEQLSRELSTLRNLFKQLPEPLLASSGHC

As a reminder, the Kd is a measure of binding affinity in units of concentration. Read a high Kd as a looser complex. The molecule “TGCAGATTGCGCAATCTGCA (double strand) [C/EBPbeta palindromic 20-mer]” yielded a Kd in data set [1] of 10 nM.

B1: CK-14 phosphodiester duplex (dsDNA)
DNA 1: CCAGGAGATTCCAC
DNA 2: GTGGAATCTCCTGG
With B1, the binding result with c-Rel homodimer [2] is “binds”.

B2: CK-14 fully monothiolated duplex (dsDNA)
DNA 1: CCAGGAGATTCCAC
DNA 2: GTGGAATCTCCTGG
modifications: PS all linkages
In the case of B2, the binding result with NF-kB p50 homodimer [3] is “binds”.

B3: CK-1 phosphorothioate duplex (dsDNA)
DNA 1: CCAGGAGATTCCACCCAGGAGATTCCACCCAGGAGATTCCAC
DNA 2: GTGGAATCTCCTGGGTGGAATCTCCTGGGTGGAATCTCCTGG
modifications: PS all linkages
As for B3, the binding result in the data set with NF-kB p50 homodimer [4] was “binds”.

B4: CK-1 42-mer phosphodiester duplex (dsDNA)
DNA 1: CCAGGAGATTCCACCCAGGAGATTCCACCCAGGAGATTCCAC
DNA 2: GTGGAATCTCCTGGGTGGAATCTCCTGGGTGGAATCTCCTGG
In the case of B4, the binding result with c-Rel homodimer [5] is recorded as “binds”.

B5: IgkB promoter element 22-mer (dsDNA)
DNA 1: AGTTGAGGGGACTTTCCCAGGC
DNA 2: GCCTGGGAAAGTCCCCTCAACT
For B5, in the data set with NF-kB p50 homodimer [6], the binding result is on record as “binds”.
